Among the data in patent US20220332804A1 (CSL INNOVATION, published 2022) are Fold diff values, retold here.

Common to all, as to assay: SPR; KD relative to WT C2;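 note: biacore SPR at 37 °C, anti-C2 mAbs captured on an anti-human IgG chip, alanine or serine C2 surface mutants tested, KD from 1:1 fit compared with wild-type C2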
(In general: SPR reads the build-up and loss of mass on a sensor chip optically.)

Experiment [1] concerns the target T1, human C2 L279A (human, UniProt P06681 21-752).
T1 sequence: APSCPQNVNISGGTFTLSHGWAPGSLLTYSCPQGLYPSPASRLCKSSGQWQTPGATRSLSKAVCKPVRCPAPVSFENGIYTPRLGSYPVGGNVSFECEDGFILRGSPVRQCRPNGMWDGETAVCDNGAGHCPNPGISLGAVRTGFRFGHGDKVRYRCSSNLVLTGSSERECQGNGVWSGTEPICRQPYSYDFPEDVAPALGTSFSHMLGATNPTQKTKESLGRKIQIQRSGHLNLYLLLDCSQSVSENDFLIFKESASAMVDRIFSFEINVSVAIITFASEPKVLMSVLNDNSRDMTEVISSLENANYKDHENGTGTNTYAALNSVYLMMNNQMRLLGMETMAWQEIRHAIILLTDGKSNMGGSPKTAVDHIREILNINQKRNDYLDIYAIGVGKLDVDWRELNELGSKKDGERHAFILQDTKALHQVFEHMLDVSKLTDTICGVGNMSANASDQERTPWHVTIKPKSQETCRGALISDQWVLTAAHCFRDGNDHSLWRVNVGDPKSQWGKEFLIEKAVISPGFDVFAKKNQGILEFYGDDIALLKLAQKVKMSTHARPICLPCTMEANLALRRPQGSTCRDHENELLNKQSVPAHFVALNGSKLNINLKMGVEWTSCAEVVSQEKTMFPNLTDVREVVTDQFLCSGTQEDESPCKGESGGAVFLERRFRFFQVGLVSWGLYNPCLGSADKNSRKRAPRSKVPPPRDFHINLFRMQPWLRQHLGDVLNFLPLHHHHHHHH

Experiment [2] concerns the target T2, human C2 F437A (human, UniProt P06681 21-752).
T2 sequence: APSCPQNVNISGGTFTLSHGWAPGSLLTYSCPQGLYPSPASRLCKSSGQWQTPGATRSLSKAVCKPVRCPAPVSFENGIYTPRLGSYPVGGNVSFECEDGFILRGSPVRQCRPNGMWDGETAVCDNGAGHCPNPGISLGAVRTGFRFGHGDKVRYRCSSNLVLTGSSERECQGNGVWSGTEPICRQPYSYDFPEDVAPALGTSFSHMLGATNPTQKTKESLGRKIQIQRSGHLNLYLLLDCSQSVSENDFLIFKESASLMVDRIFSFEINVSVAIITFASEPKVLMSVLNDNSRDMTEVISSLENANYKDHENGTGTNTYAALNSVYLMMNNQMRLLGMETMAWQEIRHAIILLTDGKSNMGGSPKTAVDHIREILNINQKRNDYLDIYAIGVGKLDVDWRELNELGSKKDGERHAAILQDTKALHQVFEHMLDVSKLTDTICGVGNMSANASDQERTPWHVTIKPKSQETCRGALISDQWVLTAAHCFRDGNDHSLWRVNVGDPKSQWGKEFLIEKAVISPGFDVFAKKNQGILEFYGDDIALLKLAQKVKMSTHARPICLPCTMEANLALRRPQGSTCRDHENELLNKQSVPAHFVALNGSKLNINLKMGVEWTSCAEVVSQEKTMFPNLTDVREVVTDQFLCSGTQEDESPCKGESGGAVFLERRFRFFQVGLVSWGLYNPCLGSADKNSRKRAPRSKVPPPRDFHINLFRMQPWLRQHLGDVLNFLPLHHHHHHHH

In experiment [3] the target is T3, human C2 N467A (human, UniProt P06681 21-752).
T3 sequence: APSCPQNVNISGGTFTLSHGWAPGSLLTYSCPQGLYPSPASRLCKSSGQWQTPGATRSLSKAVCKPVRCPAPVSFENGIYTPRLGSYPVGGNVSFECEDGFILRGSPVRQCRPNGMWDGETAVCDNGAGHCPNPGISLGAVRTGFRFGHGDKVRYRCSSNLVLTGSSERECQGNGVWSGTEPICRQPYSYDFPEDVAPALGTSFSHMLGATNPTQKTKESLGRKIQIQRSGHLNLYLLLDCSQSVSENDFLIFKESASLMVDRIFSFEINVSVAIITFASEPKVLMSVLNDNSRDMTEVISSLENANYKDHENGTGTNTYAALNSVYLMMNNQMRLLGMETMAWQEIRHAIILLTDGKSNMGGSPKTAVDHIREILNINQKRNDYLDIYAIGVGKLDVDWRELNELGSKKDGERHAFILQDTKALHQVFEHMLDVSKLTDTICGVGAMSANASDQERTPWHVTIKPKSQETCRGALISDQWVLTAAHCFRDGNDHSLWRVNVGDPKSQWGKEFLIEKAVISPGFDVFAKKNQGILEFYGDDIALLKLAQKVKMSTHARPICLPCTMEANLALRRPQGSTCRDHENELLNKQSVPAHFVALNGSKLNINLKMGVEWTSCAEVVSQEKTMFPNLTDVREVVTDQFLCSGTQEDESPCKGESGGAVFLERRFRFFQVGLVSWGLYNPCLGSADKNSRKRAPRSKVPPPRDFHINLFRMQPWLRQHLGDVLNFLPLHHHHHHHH

Experiment [4] deals with T4, human C2 S428A (human, UniProt P06681 21-752).
T4 sequence: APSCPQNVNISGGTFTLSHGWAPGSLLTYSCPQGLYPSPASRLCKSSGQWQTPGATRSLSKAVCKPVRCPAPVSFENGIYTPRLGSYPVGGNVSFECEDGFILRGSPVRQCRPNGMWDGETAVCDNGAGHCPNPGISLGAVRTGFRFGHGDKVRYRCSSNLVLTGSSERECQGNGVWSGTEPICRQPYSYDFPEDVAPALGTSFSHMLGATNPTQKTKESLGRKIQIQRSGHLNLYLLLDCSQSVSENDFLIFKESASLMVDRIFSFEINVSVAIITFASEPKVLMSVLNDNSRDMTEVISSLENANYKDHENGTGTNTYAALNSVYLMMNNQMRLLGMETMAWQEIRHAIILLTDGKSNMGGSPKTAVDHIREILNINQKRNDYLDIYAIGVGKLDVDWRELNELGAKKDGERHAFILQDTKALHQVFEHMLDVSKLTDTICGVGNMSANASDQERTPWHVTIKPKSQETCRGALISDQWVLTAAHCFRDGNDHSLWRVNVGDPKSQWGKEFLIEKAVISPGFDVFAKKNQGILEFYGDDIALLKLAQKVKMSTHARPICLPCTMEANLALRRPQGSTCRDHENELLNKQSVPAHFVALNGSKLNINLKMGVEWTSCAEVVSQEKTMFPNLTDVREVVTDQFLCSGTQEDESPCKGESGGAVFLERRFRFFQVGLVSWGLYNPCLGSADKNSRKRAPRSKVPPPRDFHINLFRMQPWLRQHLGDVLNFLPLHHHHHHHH

B1: RF16-214 (antibody, V domains shown)
VH: EVQLLESGGGLVQPGGSLRLSCAASGFTFSWYQMMWVRQAPGKGLEWVSRIYPSGGGTAYADSVKGRFTISRDNSKNTLYLQMNSLRAEDTAVYYCARDAGYGDNWGQGTLVTVSS
VL: QSALTQPPSVSVSPGQTASITCSGDKLGEKYASWYQQKAGQSPVMVIYQDRKRPSGIPERFSGSNSGNTATLTISGTQAMDEADYYCQAWDTRAVVFGGGTKLTVLG
In the case of B1, the Fold diff in experiment [1] turned out to be 8 fold; in experiment [2], 12 fold; in experiment [3], 2 fold; in experiment [4] it was 2 fold.
